The text below walks through data of US20110117082A1 (SHANGHAI FUDAN ZHANGJIANG BIO PHARMACEUTICAL, published 2011).

T1: LT28-171 (lymphotoxin) (UniProt P01374)
T1 sequence (looked up): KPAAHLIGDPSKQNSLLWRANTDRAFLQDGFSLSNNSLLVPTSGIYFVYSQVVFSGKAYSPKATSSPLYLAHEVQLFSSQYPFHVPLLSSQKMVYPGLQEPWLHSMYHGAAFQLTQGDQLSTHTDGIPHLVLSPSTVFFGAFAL

B1: LT28-171 (lymphotoxin) (ligand, UniProt P01374 62-205, looked up)
chain: T1 sequence (looked up)
notes: range 28-171; these probably count on the mature protein (171 residues), not on the precursor
B2: wild-type soluble human TNFRp75:Fc fusion protein (ENBREL from AMGEN) (Fc fusion, not shown: a dimerising Fc or GST)
chain: LPAQVAFTPYAPEPGSTCRLREYYDQTAQMCCSKCSPGQHAKVFCTKTSDTVCDSCEDSTYTQLWNWVPECLSCGSRCSSDQVETQACTREQNRICTCRPGWYCALSKQEGCRLCAPLRKCRPGFGVARPGTETSDVVCKPCAPGTFSNTTSSTDICRPHQICNVVAIPGNASMDAVCTSTSPTRSMAPGAVHLPQPVSTRSQHTQPTPEPSTAPSTSFLLPMGPSPPAEGSTGD

The target of assay [1] is T1, LT28-171 (lymphotoxin). Put plainly: cell-based or functional assay.
In assay [2] the target is tumor necrosis factor α (TNFα) (UniProt P01375). Put plainly: cell-based or functional assay.
The target in assay [3] is B2. Description: SPR, Biacore3000, receptor:Fc amine-coupled to CM5 chip, ligand in flow, 1:1 Langmuir fit. Here is the method:
The interaction of the receptor and the ligand was measured in kinetics assay using Wizard of Biacore3000. All the ligands were applied at a flow rate of 40 μL/min for 1 min, dissociated for 2 min, and then 50 mM NaOH and HBS-P buffer were applied at a flow rate of 100 μL/min for 15s and 60s to regenerate the ligands (50 mM NaOH and HBS-P buffer were applied at a flow rate of 100 μL/min for 10s and 30s to regenerate in the primary screening). The experimental data were fit to the 1:1 Langmuir association model in the analysis software of Biacore3000 to provide the specific kinetic constant.

Assay [4] concerns the target B1. Put plainly: cell-based or functional assay.

One may read the Kd as the equilibrium constant for the complex coming apart. Broadly, the koff is the first-order rate constant of dissociation. As a reminder, the kon is the rate constant with which the complex forms.

Chain of tumor necrosis factor α (TNFα) (P01375 77-233 limits assumed): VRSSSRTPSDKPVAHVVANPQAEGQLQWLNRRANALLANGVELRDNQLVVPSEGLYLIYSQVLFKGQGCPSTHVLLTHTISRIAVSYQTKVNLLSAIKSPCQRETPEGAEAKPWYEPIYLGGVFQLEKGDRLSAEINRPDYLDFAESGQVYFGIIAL

For TNFRp75 (E92A): Fc fusion protein, in the assay with LT28-171 (lymphotoxin) [1], the EC50(ng/ml) of the neutralizing activity of the mutants against LT worked out at 7.93 ng/mL and the Enhancement of the neutralizing activity against LT amounted to 291%. Moreover, in assay [2], the EC50(ng/ml) of the neutralizing activity of the mutants (Example 9: against the cytotoxicity of TNFα) amounted to 6.34 ng/mL and the Enhancement of the neutralizing activity against TNFα stood at 130%.

Consider TNFRp75 (E92H): Fc fusion protein, for which, in the assay with LT28-171 (lymphotoxin) [1], the EC50(ng/ml) of the neutralizing activity of the mutants against LT is 3.74 ng/mL and the Enhancement of the neutralizing activity against LT amounted to 1180%. In assay [2], the EC50(ng/ml) of the neutralizing activity of the mutants (Example 9: against the cytotoxicity of TNFα) amounted to 9.03 ng/mL and the Enhancement of the neutralizing activity against TNFα turned out to be 129%.

For TNFRp75 (E92N): Fc fusion protein, in the assay with LT28-171 (lymphotoxin) [1], the EC50(ng/ml) of the neutralizing activity of the mutants against LT is 7.94 ng/mL and the Enhancement of the neutralizing activity against LT turned out to be 277%. Besides, in assay [2], the EC50(ng/ml) of the neutralizing activity of the mutants (Example 9: against the cytotoxicity of TNFα) stood at 5.68 ng/mL, the Enhancement of the neutralizing activity against TNFα came out at 131% and the neutralizing activity to TNFα relative to wild-type soluble TNFRp75: Fc (ENBREL from AMGEN) (times that of wild-type TNFRp75: Fc) was found to be 1.33.

TNFRp75 (E92N, W89F): Fc fusion protein: in the assay with LT28-171 (lymphotoxin) [1], the EC50(ng/ml) of the neutralizing activity of the mutants against LT came out at 7.56 ng/mL and the Enhancement of the neutralizing activity against LT turned out to be 308%. Also, in assay [2], the EC50(ng/ml) of the neutralizing activity of the mutants (Example 9: against the cytotoxicity of TNFα) was found to be 1020 ng/mL and the Enhancement of the neutralizing activity against TNFα was found to be 128%.

As to TNFRp75 (E92S, W89Y): Fc fusion protein, in the assay with LT28-171 (lymphotoxin) [1], the EC50(ng/ml) of the neutralizing activity of the mutants against LT stood at 6.28 ng/mL and the Enhancement of the neutralizing activity against LT stood at 368%. In addition, in assay [2], the EC50(ng/ml) of the neutralizing activity of the mutants (Example 9: against the cytotoxicity of TNFα) is 12.2 ng/mL and the Enhancement of the neutralizing activity against TNFα is 133%.

In assay [3], B1 gave a Kd of 0.134 nM, a koff of 6.99e-07 s⁻¹ and a kon of 5230 M⁻¹ s⁻¹.

Turning to B2, the “EC50 of the neutralizing activity on LT” value with LT28-171 (lymphotoxin) [4] is 22.3 ng/mL.
